B1: HDV Ribozyme (parent)
chain: GGCCGGCAUGGUCCCAGCCUCCUCGCUGGCGCCGGCUGGGCAACAUUCCGAGGGGACCGUCCCCUCGGUAAUGGCGAAUGGGACCCA

In this series the parent is B1. Put plainly: self-cleavage, relative activity (ratio to wild type); higher = more cleavage; co-transcriptional.
For the variant GGCCGGCGUGGUCACAGCCUCCUCGCUGGCGCCGGCUGGGCAACAUUCCGAGGGGACCGUCCCCUCGGUAAUGGCGAAUGGGACCCA [A8G C14A], the self-cleavage stood at 0.0791.
Turning to GGCCGGCAUGGUCCCAGCCUCCUCGCUGGCGCCGGCUGGGCAACAUUCCGAGGGGACCGGCCCCUCGGUAAUGGUGAAUGGGACCCA [U60G C75U], the self-cleavage was 0.231.
Then GGCCGGCAUGGUCCCAGCCUCCUCGCUGGCGCCGGCUGGGUAACAUUCCGAGGGGACCGGCCCCUCGGUAAUGGCGAAUGGGACCCA [C41U U60G], with 1.1; and GGCCGGCAUGGUCCCAGCCUCCUCGCUGACGCCGGCUGGGCAACAUUCCGAGGGGACCGUCCCCUCGGUAAUGGCGAAUAGGACCCA [G29A G80A], with 0.163; and GGCCGGCAUGGUCCCAGCCUCCUCGUUGGCGCCGGCUGGGCAACAUACCGAGGGGACCGUCCCCUCGGUAAUGGCGAAUGGGACCCA [C26U U47A], with 1.16.
In the case of GGCCGGCAUGGUCCCAGCGUCCUCGCUGGCGCCGGCUGGGCAACAUUCCGAGGGGGCCGUCCCCUCGGUAAUGGCGAAUGGGACCCA [C19G A56G], the self-cleavage came to 0.0639.
For the variant GGCCGGCAUGGUCCCCGCCUCCUCGCUGGCGCCGGCUGGGCAACAUUCCGAGGGGACCGUCCCCUCGGUAAUUGCGAAUGGGACCCA [A16C G73U], the self-cleavage stood at 0.128.
As to GGCCGGCAUGGUCCCAGCCUCCUCUCUGGCGCCGGCUGGGCAACAUUCCGAGGGGACCGUCCCCUCGGUAAUGGCGAAUGGAACCCA [G25U G82A], the self-cleavage stood at 0.0678.
Take GGCCGGCAUGGUCCCAGCCUCCUCGCUGGCGCCGGCUGGGCAACAUUCCGAGUGGACCGUCGCCUCGGUAAUGGCGAAUGGGACCCA [G53U C62G]: the self-cleavage worked out at 0.793.
Under GGCCGGCAUGGUCCCAGCCUCCUCGCUGGCGCCUGCUGGGCAAUAUUCCGAGGGGACCGUCCCCUCGGUAAUGGCGAAUGGGACCCA [G34U C44U] stands 0.0241; under GGCCGGCAUGGUCCCAGCCCCCUCGCUGGCGCCGGCUGGGCAACAUUCCGAGGGGACCGUCCCCUCGGUAGUGGCGAAUGGGACCCA [U20C A71G], 0.0978.
Then GGCCGGCAUGGUCCCAGCCUCCUCGCUGGCGCCGGCUGGGCAACAUUCCGAGGGGUCCGUCCCCUCGGUAAUGGCGAAUGGGAUCCA [A56U C84U], with 0.808; and GGCCGGCAUGGUCCCAGCCUCCUCACUGGCGCCGGCUGGGCAACAUUCCGAGGGGACCGUCCCCUCGGUAUUGGCGAAUGGGACCCA [G25A A71U], with 0.0369.
Then GGCCGACAUGGUCCCAGCCUCCCCGCUGGCGCCGGCUGGGCAACAUUCCGAGGGGACCGUCCCCUCGGUAAUGGCGAAUGGGACCCA [G6A U23C], with 0.532.
As to GGCCGGCAUGGUCCCAGCCUCCUCGCUGGCGCCGGCUCGGCAACAUUUCGAGGGGACCGUCCCCUCGGUAAUGGCGAAUGGGACCCA [G38C C48U], the self-cleavage amounted to 0.161.
Under GGCCGGCAUGGUCUCAGCCUCCCCGCUGGCGCCGGCUGGGCAACAUUCCGAGGGGACCGUCCCCUCGGUAAUGGCGAAUGGGACCCA [C14U U23C] stands 1.47; under GGCCGGCAUGGUCCCAGCCUCCUCGCGGGCGCCGGCUGGGCAACAUUCCGACGGGACCGUCCCCUCGGUAAUGGCGAAUGGGACCCA [U27G G52C], 1.02.
Under GGCCGACAUGGUCCCAGCCUCCUCGCUGGCACCGGCUGGGCAACAUUCCGAGGGGACCGUCCCCUCGGUAAUGGCGAAUGGGACCCA [G6A G31A] stands 0.0992; under GGCCGGCAUGGUCACAGCCUGCUCGCUGGCGCCGGCUGGGCAACAUUCCGAGGGGACCGUCCCCUCGGUAAUGGCGAAUGGGACCCA [C14A C21G], 0.141; under GGCCGGCAUGGUCCCAGCCUCCUCGCUGGCGCCGGCUGGGCAACAUUCCGAGCGGACCGUCCCCUCGGUAAUCGCGAAUGGGACCCA [G53C G73C], 0.36.
Consider GGCCGGUAUGGUCCCAGCCUACUCGCUGGCGCCGGCUGGGCAACAUUCCGAGGGGACCGUCCCCUCGGUAAUGGCGAAUGGGACCCA [C7U C21A], for which the self-cleavage was 0.0314.
Under GGCCGGCAUGGUCCCAGCCUCCUCGCUGGCGCCGGCUGGGCAACAUUCCGAGAGGACCGUCCCCUCGGUAAUGGCGAAUUGGACCCA [G53A G80U] stands 0.234.
Under GGCCGGCAUGGUCCCAGCGUCCUCGCUGGCGCCGGCUGGGCAACAUUCCGAGGGGACCGUCCGCUCGGUAAUGGCGAAUGGGACCCA [C19G C63G] stands 0.229.
Consider GGCCGGGAUGGUCCCAGCCUCCUCGCUGGCGCCGGCUGGGCAACAUUCCGAGGGGACCGUCUCCUCGGUAAUGGCGAAUGGGACCCA [C7G C62U], for which the self-cleavage came out at 0.302.
Then GGCCGGCAUGGUACCAGCCUCCUCGCUCGCGCCGGCUGGGCAACAUUCCGAGGGGACCGUCCCCUCGGUAAUGGCGAAUGGGACCCA [C13A G28C], with 0.111; and GGCCGGCAUGGUCCCAGCCUCCUCGCUGGCGCCGGCGGGGCAACAUUCCGAUGGGACCGUCCCCUCGGUAAUGGCGAAUGGGACCCA [U37G G52U], with 0.198.
Under GGCCGGCAUGGUACCAGCCUCCUCGCUGGCGCCGGCUGGGCAACAUUCCGAGGGGACCGUCCCCUUGGUAAUGGCGAAUGGGACCCA [C13A C66U] stands 0.125; under GGCCGGCAUGGUCCCAGCCUGCUCGCUGGCGCCGGCUGGGCAACAUUCCGAGGGGACCGACCCCUCGGUAAUGGCGAAUGGGACCCA [C21G U60A], 0.253; under GGCCGACAUGGUCCCAGCCUCCUCGCUGGCGCCGGCUGGGCUACAUUCCGAGGGGACCGUCCCCUCGGUAAUGGCGAAUGGGACCCA [G6A A42U], 0.283.
Then GUCCGGCAUGGUCCCAGCCUCCUCGCUGGCGCCGGCUGGGCAACAUUCCGAGGGGACCGUCCUCUCGGUAAUGGCGAAUGGGACCCA [G2U C63U], with 0.0545.
On to GGCCGGUAUGGUCCCAGCCUCCUCGAUGGCGCCGGCUGGGCAACAUUCCGAGGGGACCGUCCCCUCGGUAAUGGCGAAUGGGACCCA [C7U C26A], for which the self-cleavage was found to be 0.91.
For the variant GGCCGGCAUGGUCCCAGCCUCCUCGCUGGCGCCGGCUGGGCAACAUUCCGAGGGGACCGUCCCCUCGGUAAUGGCAAAUGGGACACA [G76A C85A], the self-cleavage was 0.904.
As for GGCCGGCAUGGUCCCAGCCUCCUCGCUGGCGCCGGCCGGGCAACAUUCCGAGGGGACCGUCCCCUCGGUAAUGGCGAAUGUGACCCA [U37C G81U], the self-cleavage is 0.211.
Then GGCCGGCAUGGUCCCAGCCUCCUCGCUGGCGCCGGCUGGGCAACAUUCCGAUGGGACCGUCCCCUCGGUAAUUGCGAAUGGGACCCA [G52U G73U], with 0.305; and GGCCGGCAUGGUCCCAGCCUCCUCGCUGGCGCAGGCUGGGCAUCAUUCCGAGGGGACCGUCCCCUCGGUAAUGGCGAAUGGGACCCA [C33A A43U], with 0.163; and GGCCGGCAUGGUCCCAGCCUCGUCGCUGGCGCCGGCUGGGCAACAUUCCGAGGGGAGCGUCCCCUCGGUAAUGGCGAAUGGGACCCA [C22G C57G], with 0.219.
Then GGCCGGCAUGGUCCCAGCCUCCUCGCUGGCGCCGGCUGGGCAACAUUCCGAGGGGACCGUCCCCUCGGUAUUGGCGAAUGGUACCCA [A71U G82U], with 0.248.
On to GGCCGGCAUGGUACCAGCCUCCUCGCUGGCGCCGGCUGGGCAACAUUCCGAGGGGACCGUCCCCUCGGUAAUCGCGAAUGGGACCCA [C13A G73C], for which the self-cleavage stood at 0.0767.
Take GGCCGGCAUGAUCCCAGCCUCCUCGCUGGCGCCGGCUGGGCAACAAUCCGAGGGGACCGUCCCCUCGGUAAUGGCGAAUGGGACCCA [G11A U46A]: the self-cleavage was 0.148.
In the case of GGCCGGCAUGGUCCCAGCCUCCUCGCUGGCGCCGGCUGGGGAACAUUCCGCGGGGACCGUCCCCUCGGUAAUGGCGAAUGGGACCCA [C41G A51C], the self-cleavage stood at 0.635.
GGCCGGCAUGCUCCCAGCCUCCUCGCUGGCGCCGGCUGGGCAACAUUCCGAGGCGACCGUCCCCUCGGUAAUGGCGAAUGGGACCCA [G11C G54C]: the self-cleavage worked out at 0.291.
In the case of GGCCGGUAUGGUCCCAGCCUCCUCGCUGGCGCCGGCUGGGCAACAUUCCGAGGGGACCGUCCCCUCGGUAAUCGCGAAUGGGACCCA [C7U G73C], the self-cleavage is 0.224.
Then GGCCGGCAUGGUCCCAGCCUCCUCGCUGGCGCCGGCUGUGCAACAUUCCGAGGGGACCGUCCUCUCGGUAAUGGCGAAUGGGACCCA [G39U C63U], with 0.915; and GGCCGGCAUGAUCCCAGCCUCCUCGCUGGCGCCGGCUGGGCAACAUUCCGAGGGGACCGUCCCCUCGGUAAUAGCGAAUGGGACCCA [G11A G73A], with 0.124; and GGCCGGCAUGGUCCCAGCCUCCUCGCUGGCGCCGGCUGGGCAACAUUCCGAGGGGACCUUCCCCUCGGUAAUCGCGAAUGGGACCCA [G59U G73C], with 0.614.
On to GGCCGGCAUGGUCCCAGCCUCCUCGCUGGCGCCGGCUGGGCAAGACUCCGAGGGGACCGUCCCCUCGGUAAUGGCGAAUGGGACCCA [C44G U46C], for which the self-cleavage amounted to 0.748.
Regarding GGCCGGCAUGGUCCCAGCCUCAUCGCUGGCGCCGGCUGGGCAACAUUCCGAGGGGACCGUCCCCUCGGUAAUGGCGAAUUGGACCCA [C22A G80U], the self-cleavage worked out at 0.0408.
Under GGCCGGCAUGGUCCCAGCCUCCUCGCUGGCGCUGGCUGGGCAACAUUCCGAGGGGACCGUCCCCUCGGUAAUGGCGAAUGCGACCCA [C33U G81C] stands 0.119.
Take GGCCGGCAUGGUCCCAGCCUCCUCGCUGGCGCCGGCUGGGCAACAUUCAGAGGCGACCGUCCCCUCGGUAAUGGCGAAUGGGACCCA [C49A G54C]: the self-cleavage turned out to be 0.843.
On to GGCCGGCAUGGUCCCAGCCUCCUCGCUGGCGCCGGCUGGGCAACAUUCCGAGGGGACCGUCCCCUCGAUAAUGGCGAAUGGGUCCCA [G68A A83U], for which the self-cleavage came to 0.424.
Under GGCCGGCAUGGACCCAGCCUCCUCGCUGGCGCAGGCUGGGCAACAUUCCGAGGGGACCGUCCCCUCGGUAAUGGCGAAUGGGACCCA [U12A C33A] stands 0.0604; under GGCCGGCAUGGUCCCACCCUCCUCGCUGGCGCCGGCUGGGCAACAUUCCGAGGGGACCGUCCCCUCGGUAAUGGAGAAUGGGACCCA [G17C C75A], 0.0536; under GGCAGGCAUGGUCCCAGCCUCCUCGCUGGCGCCGGCUGGGCCACAUUCCGAGGGGACCGUCCCCUCGGUAAUGGCGAAUGGGACCCA [C4A A42C], 0.0332.
Under GACCGGCAGGGUCCCAGCCUCCUCGCUGGCGCCGGCUGGGCAACAUUCCGAGGGGACCGUCCCCUCGGUAAUGGCGAAUGGGACCCA [G2A U9G] stands 0.192; under GGCCGGCAUGGUCCCAGCCUCCUCGCUGGCGCCGGCUGGGCAAUAUUCCGAGGGCACCGUCCCCUCGGUAAUGGCGAAUGGGACCCA [C44U G55C], 0.882; under GGCCGGCAUGGUCCCAGCCUCCUCGCUGGCGCCGGCUGGGCAACAUUCCGAGGGGAGCGUCCCCUCGGUAAUGGCGAAUGGGACCUA [C57G C86U], 0.815.
With GGCCGGCAUGGUCCCAGCCUCCUCGCUAGCGCCGGCUGGGCAACAUUCCGAGGGGACCGUCCCCUCGGUAAUUGCGAAUGGGACCCA [G28A G73U], the self-cleavage was found to be 0.0326.
Under GGCCGGCAUGGUCCCAGCCUCCUCGCUGGCGCCGGCUGGGAAACAUUCCGAGGGGAACGUCCCCUCGGUAAUGGCGAAUGGGACCCA [C41A C57A] stands 1.02; under GGCCGGCAUGGUCCCAGCCUACUCGCUGGCGCCGGCUGGGCAAGAUUCCGAGGGGACCGUCCCCUCGGUAAUGGCGAAUGGGACCCA [C21A C44G], 0.0852.
With GGUCGGCAUGGUCCCAGCCUCCUCGCUGGCGCCGGCGGGGCAACAUUCCGAGGGGACCGUCCCCUCGGUAAUGGCGAAUGGGACCCA [C3U U37G], the self-cleavage was 0.0639.
Under GGCCGCCAUGGUCCCAGCCUCCUCCCUGGCGCCGGCUGGGCAACAUUCCGAGGGGACCGUCCCCUCGGUAAUGGCGAAUGGGACCCA [G6C G25C] stands 0; under GGCCGGCAUGGUCCCAGCCUCCUCCCUGGCGCCGGCUGGGCAACAUUCCCAGGGGACCGUCCCCUCGGUAAUGGCGAAUGGGACCCA [G25C G50C], 0.156.
Regarding GGCCGGCAUGGUCCCAGCCUCCUCGCUGGCGCCGGUUGGGCAACAUUCCGAGGGGACCGUCCCCUCGGUAAUGGCGAAUGGGAGCCA [C36U C84G], the self-cleavage amounted to 0.324.
Then GGCCGGCAUGGUUCCAGCCUCCUCGCUGGCGCCGGCUGGGCAACAUUCCAAGGGGACCGUCCCCUCGGUAAUGGCGAAUGGGACCCA [C13U G50A], with 0.439.
